From article PMC10661074 (Protein Science : A Publication of the Protein Society, 2023)

B1: HFt‐W4 (natural protein, human, UniProt P02794 1-183, looked up)
chain: MTTASTSQVRQNYHQDSEAAINRQINLELYASYVYLSMSYYFDRDDVALKNFAKYFLWQSWEEREHAEKLMKLQNQRGGRIFLQDIKKPDCDDWESGLNAMECALHLEKNVNQSLLELHKLATDKNDPWLCDFIETHYLNEQVKAIKELGDWVTNLRKMGAPESGLAEYLFDKHTLGDSDNES
notes: human ferritin heavy chain (H ferritin) with four substitutions to tryptophan; synthetic gene in pET22b; 24-mer cage; In the BLI experiment the cage was loaded with ellipticine (a small molecule, about 98 molecules per cage) by a pH jump; the protein is the same; also called HFt‐W4 mutant; hydrophobicity‐enhanced ferritin nanoparticle; source: E. coli, purified (ammonium sulfate fractionation, …)
B2: HFt‐W6 (natural protein, human, UniProt P02794 1-183, looked up)
chain: MTTASTSQVRQNYHQDSEAAINRQINLELYASYVYLSMSYYFDRDDVALKNFAKYFLWQSWEEREHAEKLMKLQNQRGGRIFLQDIKKPDCDDWESGLNAMECALHLEKNVNQSLLELHKLATDKNDPWLCDFIETHWLNEQVKAIKELGDWVTNLRKMGAPESGLAEYLWDKHTLGDSDNES
notes: human ferritin heavy chain (H ferritin) with six substitutions to tryptophan; synthetic gene in pET22b; 24-mer cage as purified; also called HFt‐W6 mutant; source: E. coli, purified (ammonium sulfate fractionation, heat treatment at 70°C, DNase, Superdex 200 SEC); copies: 24

Columns and labels:
[1] = target: the molecule itself; assay: SEC; analytical HP‐SEC, Agilent AdvanceBio SEC 300 Å column, phosphate‐buffered saline pH 7.4, 1.0 mL/min, UV 220 and 280 nm; purified ferritins before the pH jump
[2] = target: T1, His‐tagged TfR1 (UniProt P02786 101-760); assay: BLI; Octet N2; His‐tagged TfR1 (50 μg/mL) immobilised on Ni‐NTA biosensors; HFt 25–500 nM or HFt‐W4 loaded with ellipticine 50–400 nM in solution; single exponential fits; conditions: both partners purified
T1 construct: transferrin receptor 1 (TfR1); No catalogue number is printed; also called transferrin receptor TfR1; TfR1 receptor; source: bought: Merck
T1 sequence (P02786 101-760): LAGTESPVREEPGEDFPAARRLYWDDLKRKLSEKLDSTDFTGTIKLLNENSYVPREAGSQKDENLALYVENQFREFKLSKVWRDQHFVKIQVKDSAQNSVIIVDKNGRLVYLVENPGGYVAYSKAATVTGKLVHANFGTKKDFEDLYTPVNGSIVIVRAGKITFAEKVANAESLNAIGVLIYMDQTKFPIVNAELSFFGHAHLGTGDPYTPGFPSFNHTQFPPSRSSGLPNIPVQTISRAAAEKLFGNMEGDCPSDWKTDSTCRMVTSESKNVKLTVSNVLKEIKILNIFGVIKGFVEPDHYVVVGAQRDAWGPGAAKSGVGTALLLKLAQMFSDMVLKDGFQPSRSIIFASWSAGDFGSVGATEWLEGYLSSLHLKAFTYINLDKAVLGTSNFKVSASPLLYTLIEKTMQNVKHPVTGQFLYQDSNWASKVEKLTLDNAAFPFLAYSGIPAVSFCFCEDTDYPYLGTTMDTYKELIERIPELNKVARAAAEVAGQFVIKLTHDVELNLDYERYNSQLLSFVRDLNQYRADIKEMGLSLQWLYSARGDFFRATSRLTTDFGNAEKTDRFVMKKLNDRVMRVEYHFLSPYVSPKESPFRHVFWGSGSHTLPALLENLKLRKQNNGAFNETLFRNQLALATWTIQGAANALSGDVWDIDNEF

Row | Binder | stoichiometry N [1] | Kd [2] [nM]
1 | B1 | 24 | 25
2 | B2 | 24 | –
